According to US20150133524:

Target: PDH E1α subunit (pyruvate dehydrogenase E1 alpha subunit, 41 kDa) (UniProt P35486)
Sequence (P35486 30-390): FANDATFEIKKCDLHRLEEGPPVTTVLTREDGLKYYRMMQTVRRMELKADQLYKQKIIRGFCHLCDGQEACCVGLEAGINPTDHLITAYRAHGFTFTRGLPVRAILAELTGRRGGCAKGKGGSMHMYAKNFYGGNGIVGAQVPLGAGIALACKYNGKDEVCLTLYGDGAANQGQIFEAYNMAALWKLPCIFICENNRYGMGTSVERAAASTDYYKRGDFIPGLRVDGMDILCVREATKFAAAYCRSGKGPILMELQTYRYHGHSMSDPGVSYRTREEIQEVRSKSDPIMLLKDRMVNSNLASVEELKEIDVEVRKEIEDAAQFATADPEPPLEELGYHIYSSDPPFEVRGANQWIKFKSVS

Sequence of human PDK1 (pyruvate dehydrogenase kinase, isoenzyme 1) (chain, as listed by the source): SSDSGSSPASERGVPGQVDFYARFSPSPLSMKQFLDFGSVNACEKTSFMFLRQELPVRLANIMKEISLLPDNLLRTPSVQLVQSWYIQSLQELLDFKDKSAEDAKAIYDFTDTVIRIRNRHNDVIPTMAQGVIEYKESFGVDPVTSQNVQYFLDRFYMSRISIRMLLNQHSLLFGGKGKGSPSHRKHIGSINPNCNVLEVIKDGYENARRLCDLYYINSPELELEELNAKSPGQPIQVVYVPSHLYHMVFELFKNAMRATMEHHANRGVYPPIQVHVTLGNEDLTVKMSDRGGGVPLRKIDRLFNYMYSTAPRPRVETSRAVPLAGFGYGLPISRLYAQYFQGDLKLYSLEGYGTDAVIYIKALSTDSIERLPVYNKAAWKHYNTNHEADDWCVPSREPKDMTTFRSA

## human PDK1 (pyruvate dehydrogenase kinase, isoenzyme 1)
  PDH E1α subunit phosphorylation (immunoblot after two-dimensional gel electrophoresis of lysates of Hif1a-/- MEFs with forced PDK1 expression against empty vector): This overexpression resulted in increased PDH E1α subunit phosphorylation
